Laboratory results: patent publication US10766960 (dated 2020)

T1: FcgRIIb (human, UniProt P31994)
T1 chain: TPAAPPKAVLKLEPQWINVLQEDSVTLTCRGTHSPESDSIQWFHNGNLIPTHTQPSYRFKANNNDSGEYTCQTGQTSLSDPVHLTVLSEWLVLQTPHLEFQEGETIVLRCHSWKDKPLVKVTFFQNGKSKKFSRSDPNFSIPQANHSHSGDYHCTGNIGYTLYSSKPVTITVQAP

T2: FcgRIIa H (human, UniProt P12318)
T2 chain: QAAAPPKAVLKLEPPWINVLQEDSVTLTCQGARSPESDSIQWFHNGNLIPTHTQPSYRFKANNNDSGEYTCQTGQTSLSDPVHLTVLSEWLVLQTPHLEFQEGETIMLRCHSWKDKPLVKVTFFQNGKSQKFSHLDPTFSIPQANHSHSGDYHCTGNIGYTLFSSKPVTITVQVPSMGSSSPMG

T3: FcgRIa (human, UniProt P12314)
T3 chain: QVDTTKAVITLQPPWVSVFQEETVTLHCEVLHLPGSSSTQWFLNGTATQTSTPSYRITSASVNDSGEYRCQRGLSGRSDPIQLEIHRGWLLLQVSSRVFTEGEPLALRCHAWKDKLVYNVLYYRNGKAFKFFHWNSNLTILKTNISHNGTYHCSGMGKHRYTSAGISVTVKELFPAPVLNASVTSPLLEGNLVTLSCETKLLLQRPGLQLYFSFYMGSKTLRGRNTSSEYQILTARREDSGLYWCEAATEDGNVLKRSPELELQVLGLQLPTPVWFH

T4: FcgRIIa R (human, UniProt P12318)
T4 chain: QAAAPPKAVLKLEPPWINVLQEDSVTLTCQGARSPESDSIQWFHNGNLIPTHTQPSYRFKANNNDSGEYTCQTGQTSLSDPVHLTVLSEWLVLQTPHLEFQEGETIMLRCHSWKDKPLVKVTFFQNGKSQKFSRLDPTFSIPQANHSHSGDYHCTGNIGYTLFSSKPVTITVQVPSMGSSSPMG


What was measured:
Test in all cases: SPR
FcgRIIb = biological target: T1, FcgRIIb
FcgRIIa H = biological target: T2, FcgRIIa H
FcgRIIIa V = FcgRIIIa V (human, UniProt P08637)
FcgRIIIa V, sequence (P08637 17-208 F176V): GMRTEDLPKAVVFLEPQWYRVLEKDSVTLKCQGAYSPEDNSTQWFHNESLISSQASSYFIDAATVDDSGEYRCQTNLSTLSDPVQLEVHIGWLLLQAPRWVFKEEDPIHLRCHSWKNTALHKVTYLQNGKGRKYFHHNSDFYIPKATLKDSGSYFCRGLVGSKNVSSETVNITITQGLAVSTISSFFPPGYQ

FcgRIIIa F = FcgRIIIa F (human, UniProt P08637)
FcgRIIIa F, sequence (P08637 17-208): as the sequence (P08637 17-208 F176V) above, with V160F counted along it

FcgRIa = biological target: T3, FcgRIa
FcgRIIa R = biological target: T4, FcgRIIa R

Row | Kd (FcgRIIb) [nM] | Kd (FcgRIIa H) [nM] | Kd (FcgRIIIa V) [nM] | Kd (FcgRIIIa F) [nM] | Kd (FcgRIa) [nM] | Kd (FcgRIIa R) [nM] | Binder
1 | 120 | 76 | 0.38 | 2.4 | 0.17 | 28 | H240-Kn217/H240-Hl068/L73-k0 (antibody) chain 1: QDQLVQSGAEVKKPGASVKVSCKASGFNIKDTYIQWVRQAPGQGLEWMGRIDPLRKQTKYREKFEGRVTITADTSTNTAYMELSSLRSEDTAVYYCVRSGREFDYWGQGTLVTVSSASTKGPSVFPLAPSSKSTSGGTAALGCLVKDYFPEPVTVSWNSGALTSGVHTFPAVLQSSGLYSLSSVVTVPSSSLGTQTYICNVNHKPSNTKVDKKVEPKSCDKTHTCPPCPAPEDYWGPMVFLFPPKPKDTLMISRTPEVTCVVVDVSDEDPEVKFNWYVDGVEVHNAKTKPREEQYNATYRVVSVLTVLHQDWLNGKEYKCKVSNKDLPAPIEKTISKAKGQPREPQVCTLPPSRDELTKNQVSLWCLVKGFYPSDIAVEWESNGQPENNYKTTPPVLDSDGSFFLYSKLTVDKSRWQQGNVFSCSVMHEALHNHYTQKSLSLSP chain 2: QDQLVQSGAEVKKPGASVKVSCKASGFNIKDTYIQWVRQAPGQGLEWMGRIDPLRKQTKYREKFEGRVTITADTSTNTAYMELSSLRSEDTAVYYCVRSGREFDYWGQGTLVTVSSASTKGPSVFPLAPSSKSTSGGTAALGCLVKDYFPEPVTVSWNSGALTSGVHTFPAVLQSSGLYSLSSVVTVPSSSLGTQTYICNVNHKPSNTKVDKKVEPKSCDKTHTCPPCPAPELLGGPSVFLFPPKPKDTLMISRTPEVTCVVVDVSHEEPEVKFNWYVDGVEVHNAKTKPREEQYNSTYRVVSVLTVLHQDWLNGKEYKCKVSNDALPKPIEETISKAKGQPREPQVYTLPPSRCELTKNQVSLSCAVKGFYPSDIAVEWESNGQPENNYKTTPPVLDSDGSFFLVSKLTVDKSRWQQGNVFSCSVMHEALHNHYTQKSLSLSP chain 3: DIQMTQSPSSLSASVGDRVTITCRASQDIHKYIAWYQQKPGQAPRLLIQYTSTLQPGVPSRFSGSGSGTDYTFTISSLQPEDIATYYCLQYEQLRTFGGGTKVEIKRTVAAPSVFIFPPSDEQLKSGTASVVCLLNNFYPREAKVQWKVDNALQSGNSQESVTEQDSKDSTYSLSSTLTLSKADYEKHKVYACEVTHQGLSSPVTKSFNRGEC
2 | 160 | 32 | 0.46 | 3.4 | 0.17 | 23 | H240-Kn216/H240-Hl068/L73-k0 (antibody) chain 1: QDQLVQSGAEVKKPGASVKVSCKASGFNIKDTYIQWVRQAPGQGLEWMGRIDPLRKQTKYREKFEGRVTITADTSTNTAYMELSSLRSEDTAVYYCVRSGREFDYWGQGTLVTVSSASTKGPSVFPLAPSSKSTSGGTAALGCLVKDYFPEPVTVSWNSGALTSGVHTFPAVLQSSGLYSLSSVVTVPSSSLGTQTYICNVNHKPSNTKVDKKVEPKSCDKTHTCPPCPAPEVYWGPMVFLFPPKPKDTLMISRTPEVTCVVVDVSDEDPEVKFNWYVDGVEVHNAKTKPREEQYNATYRVVSVLTVLHQDWLNGKEYKCKVSNKDLPAPIEKTISKAKGQPREPQVCTLPPSRDELTKNQVSLWCLVKGFYPSDIAVEWESNGQPENNYKTTPPVLDSDGSFFLYSKLTVDKSRWQQGNVFSCSVMHEALHNHYTQKSLSLSP chain 2: QDQLVQSGAEVKKPGASVKVSCKASGFNIKDTYIQWVRQAPGQGLEWMGRIDPLRKQTKYREKFEGRVTITADTSTNTAYMELSSLRSEDTAVYYCVRSGREFDYWGQGTLVTVSSASTKGPSVFPLAPSSKSTSGGTAALGCLVKDYFPEPVTVSWNSGALTSGVHTFPAVLQSSGLYSLSSVVTVPSSSLGTQTYICNVNHKPSNTKVDKKVEPKSCDKTHTCPPCPAPELLGGPSVFLFPPKPKDTLMISRTPEVTCVVVDVSHEEPEVKFNWYVDGVEVHNAKTKPREEQYNSTYRVVSVLTVLHQDWLNGKEYKCKVSNDALPKPIEETISKAKGQPREPQVYTLPPSRCELTKNQVSLSCAVKGFYPSDIAVEWESNGQPENNYKTTPPVLDSDGSFFLVSKLTVDKSRWQQGNVFSCSVMHEALHNHYTQKSLSLSP chain 3: DIQMTQSPSSLSASVGDRVTITCRASQDIHKYIAWYQQKPGQAPRLLIQYTSTLQPGVPSRFSGSGSGTDYTFTISSLQPEDIATYYCLQYEQLRTFGGGTKVEIKRTVAAPSVFIFPPSDEQLKSGTASVVCLLNNFYPREAKVQWKVDNALQSGNSQESVTEQDSKDSTYSLSSTLTLSKADYEKHKVYACEVTHQGLSSPVTKSFNRGEC
3 | 160 | 34 | 0.5 | 3.5 | 0.15 | 25 | H240-Kn220/H240-Hl068/L73-k0 (antibody) chain 1: QDQLVQSGAEVKKPGASVKVSCKASGFNIKDTYIQWVRQAPGQGLEWMGRIDPLRKQTKYREKFEGRVTITADTSTNTAYMELSSLRSEDTAVYYCVRSGREFDYWGQGTLVTVSSASTKGPSVFPLAPSSKSTSGGTAALGCLVKDYFPEPVTVSWNSGALTSGVHTFPAVLQSSGLYSLSSVVTVPSSSLGTQTYICNVNHKPSNTKVDKKVEPKSCDKTHTCPPCPAPEMYWGPMVFLFPPKPKDTLMISRTPEVTCVVVDVSDEDPEVKFNWYVDGVEVHNAKTKPREEQYNATYRVVSVLTVLHQDWLNGKEYKCKVSNKDLPAPIEKTISKAKGQPREPQVCTLPPSRDELTKNQVSLWCLVKGFYPSDIAVEWESNGQPENNYKTTPPVLDSDGSFFLYSKLTVDKSRWQQGNVFSCSVMHEALHNHYTQKSLSLSP chain 2: QDQLVQSGAEVKKPGASVKVSCKASGFNIKDTYIQWVRQAPGQGLEWMGRIDPLRKQTKYREKFEGRVTITADTSTNTAYMELSSLRSEDTAVYYCVRSGREFDYWGQGTLVTVSSASTKGPSVFPLAPSSKSTSGGTAALGCLVKDYFPEPVTVSWNSGALTSGVHTFPAVLQSSGLYSLSSVVTVPSSSLGTQTYICNVNHKPSNTKVDKKVEPKSCDKTHTCPPCPAPELLGGPSVFLFPPKPKDTLMISRTPEVTCVVVDVSHEEPEVKFNWYVDGVEVHNAKTKPREEQYNSTYRVVSVLTVLHQDWLNGKEYKCKVSNDALPKPIEETISKAKGQPREPQVYTLPPSRCELTKNQVSLSCAVKGFYPSDIAVEWESNGQPENNYKTTPPVLDSDGSFFLVSKLTVDKSRWQQGNVFSCSVMHEALHNHYTQKSLSLSP chain 3: DIQMTQSPSSLSASVGDRVTITCRASQDIHKYIAWYQQKPGQAPRLLIQYTSTLQPGVPSRFSGSGSGTDYTFTISSLQPEDIATYYCLQYEQLRTFGGGTKVEIKRTVAAPSVFIFPPSDEQLKSGTASVVCLLNNFYPREAKVQWKVDNALQSGNSQESVTEQDSKDSTYSLSSTLTLSKADYEKHKVYACEVTHQGLSSPVTKSFNRGEC
